These results are taken from the supplement of paper PMC9170038.

Data set [1] relates to MS2 coat protein. The data set is described as follows: apparent KD of MS2 coat protein, switch ON state; designed switch direction (-1 OFF switch, 1 ON switch): 1; higher = weaker reporter binding. Particulars: FMN input: 0 or 200 uM; Eterna round: R93 (includes R88 designs). A digest of the protocol:
(§1)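 The buffer was 100 mM Tris-HCl pH 7.5 with 80 mM KCl and 4 mM MgCl2, used without or with constant ligand. In it, RNA switches transcribed on-chip from Illumina sequencing clusters were titrated with SNAP-549-labelled MS2 coat protein in twofold steps from 0.7 or 1.5 nM to 3 µM. Apparent KD for each design is the median of its normalised cluster binding-curve fits.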

Data set [2] deals with MS2 coat protein. Nature of the data set: apparent KD of MS2 coat protein, switch OFF state (with FMN for OFF switches, without FMN for ON switches); designed switch direction (-1 OFF switch, 1 ON switch): 1; higher = weaker reporter binding. Particulars: FMN input: 0 or 200 uM; Eterna round: R93 (includes R88 designs). Put shortly:
as §1

With “GAGAAGAAGAGAGAGGAUAUCCAAAGGAAAACAUGAGGAUCACCCAUGUAAAAGGUAGGAAAUUGGGAGAAGGCUCAAAAGAGGG [salish99-ss2-028(!)]”, the entries for the “apparent KD of MS2 coat protein” value in data set [1] and in data set [2] were 0.0199 µM and 0.044 µM, respectively.
Taken in the same sequence, the figures for “GAGGACAUAGUACAGGAUAUAUGAAUAGUUACAUGAGGAUCACCCAUGUGCAUUUAUAUGCGAACAUAGAAGGGUGGUAGUUAUC [SameState2 Malc#30]” were 0.136 µM and 0.0689 µM.
“GAUAAACAUGAGGAUCACCCAUGUAGAUAUAUGGGAGGAUAUACAAAGACGAUAGUCAUAGUAGAAGGCCUAAUAG [77%, Mat - Mod of Eli - With 5 more U's]”: the “apparent KD of MS2 coat protein” value in data set [1] is 0.03 µM; in data set [2], 0.0912 µM.
With “GAUAGACAUGAGGAUCACCCAUGUAGAAUUAUGGGAGGAUAUACAAAGACGAGAGUCAGAGUAGAAGGCCUAGGAU [salish99-ss1-157]”, the “apparent KD of MS2 coat protein” value in data set [1] is 0.0236 µM; in data set [2], 0.0544 µM.
“GCUCCAGCUAGCAAGGAUAUGUAGGAUGCUACAUGAGGAUCACCCAUGUGCUGAAAUAAGUCCCGGCAGAAGGUGUGACUGGAGA [Laedtear]”: the figures for the “apparent KD of MS2 coat protein” value in data set [1] and in data set [2] were 0.0168 µM and 0.0269 µM, respectively.
Take “GGAAAACAUGAGGAUCACCCAUGUGAAAACGUGGGAGGAUAUCCAUGGAAACCAUACUGUGGAGAAGGCCCAUGUC [EteRNA is fun!]”: the results for the “apparent KD of MS2 coat protein” value in data set [1] and in data set [2] were 0.0196 µM and 0.0652 µM, respectively.
On to “GGCAGUCCGACACAGGAUAUGGGUAACGAAACAUGAGGAUCACCCAUGUGGAAACAUCGGGUUGCCUAGAAGGGUGGAAAGAUUG [Xeti]”, for which the “apparent KD of MS2 coat protein” value in data set [1] stood at 0.0264 µM; in data set [2], 0.259 µM.
For the sequence “GGGAGACAUGAGGAUCACCCAUGUGAGAAGAGGCGAGGAUAUCGAAAGAAAGAAGAGAAACGAGAAGGCGCGAGCU [salish99-SS1-056]”, the “apparent KD of MS2 coat protein” value in data set [1] is 0.0281 µM; in data set [2], 0.062 µM.
Taken in the same sequence, the figures for “GGGAGACAUGAGGAUCACCCAUGUGAGAAGAGGCGAGGAUAUCGAAAGAAAGAAGAGAAACGAGAAGGCGCGAGGA [salish99-SS1-051]” were 0.0377 µM and 0.0447 µM.
In the same order, the values of “GGGAGGAAGAGAGAGGAUAUCCAAAGGAAAACAUGAGGAUCACCCAUGUAAAAGGUAGGAAAUUGGGAGAAGGCUCAAAAGAAGG [salish99-ss2-045]” are 0.0276 µM and 0.0365 µM.
In the same order, the values of “GUAGAACAUGAGGAUCACCCAUGUGAAGACGCAUGAGGAUAUAUACGUAAAUAGCAUACGAUAGAAGGCAUGAUAA [JR_SS001_Sub1703]” are 0.0255 µM and 0.0535 µM.
With “GUAUGCAUGAGGUAGGAUAUCCAAAACAAAACAUGAGGAUCACCCAUGUAAACAAACAACAAAUGGGAGAAGGACCACAUGUAUAC [Ex6 sub 5]”, the results for the “apparent KD of MS2 coat protein” value in data set [1] and in data set [2] were 0.0131 µM and 0.0271 µM, respectively.
Taken in the same sequence, the figures for “UAACAGCACAGGUAGGAUAUGUAGGGUGGUACAUGAGGAUCACCCAUGUAUCCACCCUUCGAAAGGCAGAAGGGCCUGUCGCUAC [Velabibe]” were 0.0146 µM and 0.0204 µM.
Taken in the same sequence, the figures for “UAAUAAUAAACCAAGGAUAUGGAGUAAAGAACAUGAGGAUCACCCAUGUGUAGCGUGGAAUAGUACCAGAAGGUGGAGUGAAAUG [JR_SS002_Sub1003]” were 0.0541 µM and 0.0523 µM.
Taken in the same sequence, the figures for “UAGAGAACAGGGUAGGAUAUGCAUGGUCGUACAUGAGGAUCACCCAUGUAGUCUAGAAAAUAAAUGCAGAAGGACCAAAAGAAAA [Edsodiin]” were 0.0156 µM and 0.032 µM.
On to “UAGAGACAUGAGGAUCACCCAUGUAGGAUUAUGGGAGGAUAUACAAAGACGAGAGUCAGAGUAGAAGGCCUAGGAU [salish99-ss1-134(!)]”, for which the results for the “apparent KD of MS2 coat protein” value in data set [1] and in data set [2] were 0.0274 µM and 0.0614 µM, respectively.
Consider “UAUAAACAUGAGGAUCACCCAUGUAGAAAUAUGGGAGGAUAUACGAAGACGAAAGUCAAAGUAGAAGGCCUAAUAU [Mat - Same State 1 - Eli mod - D113]”, for which the results for the “apparent KD of MS2 coat protein” value in data set [1] and in data set [2] were 0.0169 µM and 0.0492 µM, respectively.
Taken in the same sequence, the figures for “UCCUUACAUGAGGAUCACCCAUGUCGCAGGAAUCAAGGAUAUGGGACCGCAAUGCGGAAACCAGAAGGUGACAAAA [Zaesor]” were 0.158 µM and 0.322 µM.
Regarding “UUAUUACAUGAGGAUCACCCAUGUUUAGUGGUGACAGGAUAUACGAAAAAAAAAAAAAAAGUAGAAGGGUCUUAUU [SS 1.1]”, the “apparent KD of MS2 coat protein” value in data set [1] was 0.162 µM; in data set [2] it was 0.0505 µM.
